Laboratory results published in US20260285984 (published 2026).

Molecular target: PD-1 (human)
Test: SPR (range 50-70 nM)

PD-1 (human), sequence (chain, as listed by the source): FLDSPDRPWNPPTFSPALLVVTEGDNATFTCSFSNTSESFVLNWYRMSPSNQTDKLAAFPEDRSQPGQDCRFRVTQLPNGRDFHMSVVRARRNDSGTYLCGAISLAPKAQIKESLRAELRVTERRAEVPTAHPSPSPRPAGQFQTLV

B1: PD-1 agonist VHH (antibody, V domains shown)
VH: EVQLVESGGALVQPGGSLRLSCAASGFTFSSYAMTWVRQAPGKGPEWVSAIASDGASTSYLDSVKGRFTVSRDNAKNTLYLQMNSLKPEDTAVYYCARGGYLTYDRYGQGTQVTVSS
A Kd of ~60 nM was found for B1 in this work.
